According to US20150045291A1 (YEDA RESEARCH AND DEVELOPMENT, published 2015):

Columns and labels:
Assay in all cases: cell-based or functional assay
[1] = target: T1, HIV-1 HXB2 envelope protein (ENV), gp41 transmembrane subunit (HIV-1 HXB2, UniProt P04578 33-856)
[2] = target: T1, HIV-1 HXB2 envelope protein (ENV), gp41 …; remark: listed apart in the source
[3] = target: HIV-1 LAI ENV (CXCR4 tropic) (HIV-1 LAI, UniProt P03377 33-861)
[4] = target: HIV-1 AD8 ENV (CCR5 tropic) (HIV-1 AD8)

B1: N17mut (e, g) K-sphing (peptide)
peptide: ELQLTQWKIKQLLARILK
modifications: sphinganine on the side chain of the C-terminal Lys
IC50 (nM), antiviral activity in a fully infectious HIV-1 system [1]: 120 nM

B2: Palmitic acid-N17 (peptide)
peptide: LLQLTVWGIKQLQARIL
modifications: palmitic acid (C16) on the N-terminus
IC50 (nM), antiviral activity in a fully infectious HIV-1 system [1]: > 4000 nM

B3: N17K (peptide)
peptide: LLQLTVWGIKQLQARILK
IC50 (nM), antiviral activity in a fully infectious HIV-1 system [1]: > 4000 nM

B4: DP19K (peptide)
peptide: YTSLIHSLIEESQNQQEKNK
IC50 (nM), antiviral activity in a fully infectious HIV-1 system [1]: 2210 nM

B5: Sphinganine-ShN17 (peptide)
peptide: LQARILAVERYLKDQQL
modifications: sphinganine on the N-terminus
IC50 (nM), antiviral activity in a fully infectious HIV-1 system [1]: 886 nM

B6: Sphinganine-N17K (peptide)
peptide: LLQLTVWGIKQLQARILK
modifications: sphinganine on the N-terminus
inhibitory concentration at 50% infectivity (IC50) [2]: 116 nM
IC50 (nM), antiviral activity in a fully infectious HIV-1 system [1]: 118 nM

B7: DP19K-sphinganine (peptide)
peptide: YTSLIHSLIEESQNQQEKNK
modifications: sphinganine on the side chain of the C-terminal Lys
IC50 (nM), antiviral activity in a fully infectious HIV-1 system [1]: 350 nM

B8: Sphing-N17mut (e, g) K (peptide)
peptide: ELQLTQWKIKQLLARILK
modifications: sphinganine on the N-terminus
IC50 (nM), antiviral activity in a fully infectious HIV-1 system [1]: 120 nM

B9: Tocopherol-N17 (peptide)
peptide: LLQLTVWGIKQLQARIL
modifications: tocopherol (alpha-tocopherol succinate) on the N-terminus
IC50 (nM), antiviral activity in a fully infectious HIV-1 system [1]: > 4000 nM

B10: N17mut (e, g) K (peptide)
peptide: ELQLTQWKIKQLLARILK
IC50 (nM), antiviral activity in a fully infectious HIV-1 system [1]: > 4000 nM

B11: Sphinganine-N17 (peptide)
peptide: LLQLTVWGIKQLQARIL
modifications: sphinganine (dihydrosphingosine) on the N-terminus
IC50, infection of TZM-bl cells by pseudotyped virus [3]: 312 nM
IC50, infection of TZM-bl cells by pseudotyped virus [4]: 403 nM
IC50 (nM), antiviral activity in a fully infectious HIV-1 system [1]: 121 nM

B12: Sphingosine-N17 (peptide)
peptide: LLQLTVWGIKQLQARIL
modifications: sphingosine on the N-terminus
IC50 (nM), antiviral activity in a fully infectious HIV-1 system [1]: 208 nM

B13: N17 (peptide)
peptide: LLQLTVWGIKQLQARIL
IC50 (nM), antiviral activity in a fully infectious HIV-1 system [1]: > 4000 nM

B14: Cholesterol-N17 (peptide)
peptide: LLQLTVWGIKQLQARIL
modifications: cholesterol on the N-terminus
IC50 (nM), antiviral activity in a fully infectious HIV-1 system [1]: > 4000 nM

B15: N17K-sphinganine (peptide)
peptide: LLQLTVWGIKQLQARILK
modifications: sphinganine on the side chain of the C-terminal Lys
IC50 value, viral infectivity [2]: 287 nM
IC50 (nM), antiviral activity in a fully infectious HIV-1 system [1]: 291 nM

B16: N14 (peptide)
peptide: LLQLTVWGIKQLQA
IC50 (nM), antiviral activity in a fully infectious HIV-1 system [1]: > 4000 nM

B17: Sphing-N14 (peptide)
peptide: LLQLTVWGIKQLQA
modifications: sphinganine on the N-terminus
IC50 (nM), antiviral activity in a fully infectious HIV-1 system [1]: 500 nM
